In US20150344570A1 (published 2015) one finds He/Con_2b and Ho/Con_2b data, which are given here for 26 molecules.

T1: human FcγRIIb extracellular domain with C-terminal His tag (human, UniProt P31994 43-217)
T1 construct: extracellular domain; also called FcgRIIb; 2b; not shown: His tag attached to the C terminus
T1 sequence (looked up): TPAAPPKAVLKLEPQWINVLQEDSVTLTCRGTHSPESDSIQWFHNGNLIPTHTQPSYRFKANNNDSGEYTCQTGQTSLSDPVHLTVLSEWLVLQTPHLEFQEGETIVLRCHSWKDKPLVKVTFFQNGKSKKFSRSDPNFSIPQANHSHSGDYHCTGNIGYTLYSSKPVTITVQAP

B1: GpH7-A5/GpH7-B3 variant K334_18N/GpL16-k0 (He Ab) (antibody, human IgG1, kappa)
heavy 1: not shown
heavy 2: not shown
light: DIVMTQSPLSLPVTPGEPASISCQASESLVHSNRNTYLHWYLQKPGQSPQLLIYKVSNRFSGVPDRFSGSGSGTDFTLKISRVEAEDVGVYYCSQNTHVPPTFGQGTKVEIERTVAAPSVFIFPPSDEQLKSGTASVVCLLNNFYPREAKVQWKVDNALQSGNSQESVTEQDSKDSTYSLSSTLTLSKADYEKHKVYACEVTHQGLSSPVTKSFNRGEC
notes: Anti-glypican-3 IgG1; mutation only in the GpH7-B3-derived H chain; also called K334N heterodimerized antibody
B2: GpH7-B3 variant S239_09D/GpL16-k0 (Ho Ab) (antibody, human IgG1, kappa)
heavy: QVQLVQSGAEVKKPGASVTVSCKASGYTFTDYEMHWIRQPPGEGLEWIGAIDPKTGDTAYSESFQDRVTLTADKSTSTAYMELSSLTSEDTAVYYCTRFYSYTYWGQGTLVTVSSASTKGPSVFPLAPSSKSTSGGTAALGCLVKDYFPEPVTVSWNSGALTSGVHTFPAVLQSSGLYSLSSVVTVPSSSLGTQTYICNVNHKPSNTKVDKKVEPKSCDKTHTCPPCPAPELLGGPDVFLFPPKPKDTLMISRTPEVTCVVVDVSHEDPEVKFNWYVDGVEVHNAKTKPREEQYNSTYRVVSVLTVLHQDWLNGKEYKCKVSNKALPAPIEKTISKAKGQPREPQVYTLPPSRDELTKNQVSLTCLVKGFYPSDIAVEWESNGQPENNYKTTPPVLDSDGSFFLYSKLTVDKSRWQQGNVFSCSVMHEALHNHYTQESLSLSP
light: B1 light
notes: Anti-glypican-3 IgG1; mutation in both H chains; also called S239D homodimerized antibody
B3: GpH7-A5/GpH7-B3 variant S239_09D/GpL16-k0 (He Ab) (antibody, human IgG1, kappa)
heavy 1: not shown
heavy 2: not shown
light: B1 light
notes: Anti-glypican-3 IgG1; mutation only in the GpH7-B3-derived H chain; also called S239D heterodimerized antibody
B4: GpH7-A5/GpH7-B3 variant S267_07I/GpL16-k0 (He Ab) (antibody, human IgG1, kappa)
heavy 1: not shown
heavy 2: not shown
light: B1 light
notes: Anti-glypican-3 IgG1; mutation only in the GpH7-B3-derived H chain; also called S267I heterodimerized antibody
B5: GpH7-A5/GpH7-B3 variant P271_08L/GpL16-k0 (He Ab) (antibody, human IgG1, kappa)
heavy 1: not shown
heavy 2: not shown
light: B1 light
notes: Anti-glypican-3 IgG1; mutation only in the GpH7-B3-derived H chain; also called P271L heterodimerized antibody
B6: GpH7-B3 variant S337_14T/GpL16-k0 (Ho Ab) (antibody, human IgG1, kappa)
heavy: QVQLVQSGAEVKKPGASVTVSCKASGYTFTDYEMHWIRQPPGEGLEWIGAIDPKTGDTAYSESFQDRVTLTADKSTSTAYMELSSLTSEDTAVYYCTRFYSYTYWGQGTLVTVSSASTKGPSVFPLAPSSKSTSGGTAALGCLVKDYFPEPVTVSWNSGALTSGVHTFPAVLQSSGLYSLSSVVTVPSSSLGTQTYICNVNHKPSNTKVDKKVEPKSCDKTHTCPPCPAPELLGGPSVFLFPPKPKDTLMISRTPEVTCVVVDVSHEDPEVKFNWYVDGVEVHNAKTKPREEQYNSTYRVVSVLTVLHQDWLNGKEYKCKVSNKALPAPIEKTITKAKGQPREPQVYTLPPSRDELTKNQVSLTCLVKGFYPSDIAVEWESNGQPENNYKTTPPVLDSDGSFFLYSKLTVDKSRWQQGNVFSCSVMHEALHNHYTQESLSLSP
light: B1 light
notes: Anti-glypican-3 IgG1; mutation in both H chains; also called S337T homodimerized antibody
B7: GpH7-B3 variant S239_18N/GpL16-k0 (Ho Ab) (antibody, human IgG1, kappa)
heavy: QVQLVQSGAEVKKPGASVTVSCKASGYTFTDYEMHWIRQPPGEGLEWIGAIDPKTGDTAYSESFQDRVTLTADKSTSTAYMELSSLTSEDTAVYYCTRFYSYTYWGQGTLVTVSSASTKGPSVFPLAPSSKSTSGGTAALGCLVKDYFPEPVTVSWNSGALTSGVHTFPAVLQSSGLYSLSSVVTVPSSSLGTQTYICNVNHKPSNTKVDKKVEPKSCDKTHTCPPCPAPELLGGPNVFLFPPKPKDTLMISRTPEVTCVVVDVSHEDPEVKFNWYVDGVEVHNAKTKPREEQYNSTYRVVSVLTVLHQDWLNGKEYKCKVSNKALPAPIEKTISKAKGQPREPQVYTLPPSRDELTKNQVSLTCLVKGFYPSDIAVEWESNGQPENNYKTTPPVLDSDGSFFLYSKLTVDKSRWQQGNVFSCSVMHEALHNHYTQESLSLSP
light: B1 light
notes: Anti-glypican-3 IgG1; mutation in both H chains; also called S239N homodimerized antibody
B8: GpH7-A5/GpH7-B3 variant T335_08L/GpL16-k0 (He Ab) (antibody, human IgG1, kappa)
heavy 1: not shown
heavy 2: not shown
light: B1 light
notes: Anti-glypican-3 IgG1; mutation only in the GpH7-B3-derived H chain; also called T335L heterodimerized antibody
B9: GpH7-A5/GpH7-B3 variant S267_09D/GpL16-k0 (He Ab) (antibody, human IgG1, kappa)
heavy 1: not shown
heavy 2: not shown
light: B1 light
notes: Anti-glypican-3 IgG1; mutation only in the GpH7-B3-derived H chain; also called S267D heterodimerized antibody
B10: GpH7-A5/GpH7-B3 variant S267_03V/GpL16-k0 (He Ab) (antibody, human IgG1, kappa)
heavy 1: not shown
heavy 2: not shown
light: B1 light
notes: Anti-glypican-3 IgG1; mutation only in the GpH7-B3-derived H chain; also called S267V heterodimerized antibody
B11: GpH7-A5/GpH7-B3 variant S337_09D/GpL16-k0 (He Ab) (antibody, human IgG1, kappa)
heavy 1: not shown
heavy 2: not shown
light: B1 light
notes: Anti-glypican-3 IgG1; mutation only in the GpH7-B3-derived H chain; also called S337D heterodimerized antibody
B12: GpH7-A5/GpH7-B3 variant S337_14T/GpL16-k0 (He Ab) (antibody, human IgG1, kappa)
heavy 1: not shown
heavy 2: not shown
light: B1 light
notes: Anti-glypican-3 IgG1; mutation only in the GpH7-B3-derived H chain; also called S337T heterodimerized antibody
B13: GpH7-B3 variant S267_09D/GpL16-k0 (Ho Ab) (antibody, human IgG1, kappa)
heavy: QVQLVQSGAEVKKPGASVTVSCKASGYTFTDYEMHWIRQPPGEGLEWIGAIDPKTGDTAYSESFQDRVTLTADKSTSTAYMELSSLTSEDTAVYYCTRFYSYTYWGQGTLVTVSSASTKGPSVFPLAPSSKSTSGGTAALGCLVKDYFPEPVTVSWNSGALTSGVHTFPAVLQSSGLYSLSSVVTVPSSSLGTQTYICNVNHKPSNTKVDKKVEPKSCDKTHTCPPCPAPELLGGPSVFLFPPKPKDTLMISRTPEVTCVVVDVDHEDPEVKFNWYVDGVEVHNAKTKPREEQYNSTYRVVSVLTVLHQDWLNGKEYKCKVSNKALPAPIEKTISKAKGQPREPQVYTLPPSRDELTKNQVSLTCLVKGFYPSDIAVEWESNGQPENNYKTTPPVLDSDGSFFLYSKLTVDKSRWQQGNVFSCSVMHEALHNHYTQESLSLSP
light: B1 light
notes: Anti-glypican-3 IgG1; mutation in both H chains; also called S267D homodimerized antibody
B14: GpH7-B3 variant T335_09D/GpL16-k0 (Ho Ab) (antibody, human IgG1, kappa)
heavy: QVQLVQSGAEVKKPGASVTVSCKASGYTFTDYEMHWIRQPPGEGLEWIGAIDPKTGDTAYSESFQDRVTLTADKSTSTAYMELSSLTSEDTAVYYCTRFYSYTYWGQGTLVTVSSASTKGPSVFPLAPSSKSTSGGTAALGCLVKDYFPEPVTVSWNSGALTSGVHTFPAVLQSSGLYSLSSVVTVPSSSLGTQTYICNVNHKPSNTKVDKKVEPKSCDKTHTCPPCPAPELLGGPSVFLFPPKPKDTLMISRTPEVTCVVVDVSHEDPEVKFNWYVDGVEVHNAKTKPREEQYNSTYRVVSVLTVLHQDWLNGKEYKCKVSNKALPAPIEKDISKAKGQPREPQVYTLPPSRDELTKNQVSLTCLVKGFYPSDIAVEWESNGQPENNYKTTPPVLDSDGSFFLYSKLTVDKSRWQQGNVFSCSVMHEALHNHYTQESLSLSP
light: B1 light
notes: Anti-glypican-3 IgG1; mutation in both H chains; also called T335D homodimerized antibody
B15: GpH7-A5/GpH7-B3 variant K334_15Y/GpL16-k0 (He Ab) (antibody, human IgG1, kappa)
heavy 1: not shown
heavy 2: not shown
light: B1 light
notes: Anti-glypican-3 IgG1; mutation only in the GpH7-B3-derived H chain; also called K334Y heterodimerized antibody
B16: GpH7-A5/GpH7-B3 variant T335_04F/GpL16-k0 (He Ab) (antibody, human IgG1, kappa)
heavy 1: not shown
heavy 2: not shown
light: B1 light
notes: Anti-glypican-3 IgG1; mutation only in the GpH7-B3-derived H chain; also called T335F heterodimerized antibody
B17: GpH7-A5/GpH7-B3 variant L328_15Y/GpL16-k0 (He Ab) (antibody, human IgG1, kappa)
heavy 1: not shown
heavy 2: not shown
light: B1 light
notes: Anti-glypican-3 IgG1; mutation only in the GpH7-B3-derived H chain; also called L328Y heterodimerized antibody
B18: GpH7-A5/GpH7-B3 variant L328_19Q/GpL16-k0 (He Ab) (antibody, human IgG1, kappa)
heavy 1: not shown
heavy 2: not shown
light: B1 light
notes: Anti-glypican-3 IgG1; mutation only in the GpH7-B3-derived H chain; also called L328Q heterodimerized antibody
B19: GpH7-B3 variant S298_08L/GpL16-k0 (Ho Ab) (antibody, human IgG1, kappa)
heavy: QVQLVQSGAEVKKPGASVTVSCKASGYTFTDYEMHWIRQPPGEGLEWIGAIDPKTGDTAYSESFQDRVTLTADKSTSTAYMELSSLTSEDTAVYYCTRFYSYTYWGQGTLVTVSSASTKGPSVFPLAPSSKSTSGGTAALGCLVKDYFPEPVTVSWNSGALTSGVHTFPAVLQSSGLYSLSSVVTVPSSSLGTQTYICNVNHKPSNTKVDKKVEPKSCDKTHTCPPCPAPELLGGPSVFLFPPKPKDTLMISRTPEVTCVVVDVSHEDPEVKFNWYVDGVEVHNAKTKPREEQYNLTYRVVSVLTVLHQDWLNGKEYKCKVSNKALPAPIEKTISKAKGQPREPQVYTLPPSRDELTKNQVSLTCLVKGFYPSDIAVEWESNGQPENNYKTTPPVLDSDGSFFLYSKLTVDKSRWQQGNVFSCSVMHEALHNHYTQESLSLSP
light: B1 light
notes: Anti-glypican-3 IgG1; mutation in both H chains; also called S298L homodimerized antibody
B20: GpH7-A5/GpH7-B3 variant P271_01G/GpL16-k0 (He Ab) (antibody, human IgG1, kappa)
heavy 1: not shown
heavy 2: not shown
light: B1 light
notes: Anti-glypican-3 IgG1; mutation only in the GpH7-B3-derived H chain; also called P271G heterodimerized antibody
B21: GpH7-B3 variant S267_10E/GpL16-k0 (Ho Ab) (antibody, human IgG1, kappa)
heavy: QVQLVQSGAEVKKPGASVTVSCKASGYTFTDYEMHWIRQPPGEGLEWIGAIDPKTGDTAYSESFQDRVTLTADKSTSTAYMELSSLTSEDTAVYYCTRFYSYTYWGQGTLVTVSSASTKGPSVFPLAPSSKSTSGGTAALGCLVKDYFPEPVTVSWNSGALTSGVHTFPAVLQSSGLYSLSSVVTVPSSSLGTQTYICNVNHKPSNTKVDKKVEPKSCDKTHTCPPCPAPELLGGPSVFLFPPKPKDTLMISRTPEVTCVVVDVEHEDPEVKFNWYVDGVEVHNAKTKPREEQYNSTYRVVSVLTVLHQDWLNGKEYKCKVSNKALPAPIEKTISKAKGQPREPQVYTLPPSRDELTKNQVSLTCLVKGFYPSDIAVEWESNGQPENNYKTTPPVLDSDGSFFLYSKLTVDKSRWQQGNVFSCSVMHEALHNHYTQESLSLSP
light: B1 light
notes: Anti-glypican-3 IgG1; mutation in both H chains; also called S267E homodimerized antibody
B22: GpH7-A5/GpH7-B3 variant S267_08L/GpL16-k0 (He Ab) (antibody, human IgG1, kappa)
heavy 1: not shown
heavy 2: not shown
light: B1 light
notes: Anti-glypican-3 IgG1; mutation only in the GpH7-B3-derived H chain; also called S267L heterodimerized antibody
B23: GpH7-B3 variant S267_14T/GpL16-k0 (Ho Ab) (antibody, human IgG1, kappa)
heavy: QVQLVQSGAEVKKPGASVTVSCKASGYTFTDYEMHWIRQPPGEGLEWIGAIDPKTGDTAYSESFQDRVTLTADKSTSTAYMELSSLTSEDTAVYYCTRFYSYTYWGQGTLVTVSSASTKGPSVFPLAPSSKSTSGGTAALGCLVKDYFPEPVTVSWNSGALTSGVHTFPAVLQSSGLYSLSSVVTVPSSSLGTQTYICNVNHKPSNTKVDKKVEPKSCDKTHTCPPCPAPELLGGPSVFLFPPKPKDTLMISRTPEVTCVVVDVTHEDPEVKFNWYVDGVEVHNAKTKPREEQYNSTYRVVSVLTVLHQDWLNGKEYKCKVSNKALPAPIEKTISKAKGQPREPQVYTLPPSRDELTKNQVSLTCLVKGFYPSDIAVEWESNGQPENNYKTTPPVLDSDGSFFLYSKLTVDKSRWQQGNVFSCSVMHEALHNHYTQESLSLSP
light: B1 light
notes: Anti-glypican-3 IgG1; mutation in both H chains; also called S267T homodimerized antibody
B24: GpH7-B3 variant Y300_19Q/GpL16-k0 (Ho Ab) (antibody, human IgG1, kappa)
heavy: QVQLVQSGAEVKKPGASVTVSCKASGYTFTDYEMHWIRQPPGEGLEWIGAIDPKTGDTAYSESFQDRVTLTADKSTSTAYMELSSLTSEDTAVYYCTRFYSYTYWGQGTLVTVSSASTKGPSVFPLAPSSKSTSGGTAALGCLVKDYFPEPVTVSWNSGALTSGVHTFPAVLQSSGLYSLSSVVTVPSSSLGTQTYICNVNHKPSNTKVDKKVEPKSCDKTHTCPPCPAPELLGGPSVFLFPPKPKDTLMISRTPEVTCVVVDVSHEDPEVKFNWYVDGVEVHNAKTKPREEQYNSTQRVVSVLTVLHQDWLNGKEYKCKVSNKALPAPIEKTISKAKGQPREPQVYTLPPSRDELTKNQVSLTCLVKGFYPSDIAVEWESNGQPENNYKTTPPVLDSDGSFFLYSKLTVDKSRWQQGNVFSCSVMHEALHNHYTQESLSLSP
light: B1 light
notes: Anti-glypican-3 IgG1; mutation in both H chains; also called Y300Q homodimerized antibody
B25: GpH7-A5/GpH7-B3 variant L328_14T/GpL16-k0 (He Ab) (antibody, human IgG1, kappa)
heavy 1: not shown
heavy 2: not shown
light: B1 light
notes: Anti-glypican-3 IgG1; mutation only in the GpH7-B3-derived H chain; also called L328T heterodimerized antibody
B26: GpH7-B3 variant S337_10E/GpL16-k0 (Ho Ab) (antibody, human IgG1, kappa)
heavy: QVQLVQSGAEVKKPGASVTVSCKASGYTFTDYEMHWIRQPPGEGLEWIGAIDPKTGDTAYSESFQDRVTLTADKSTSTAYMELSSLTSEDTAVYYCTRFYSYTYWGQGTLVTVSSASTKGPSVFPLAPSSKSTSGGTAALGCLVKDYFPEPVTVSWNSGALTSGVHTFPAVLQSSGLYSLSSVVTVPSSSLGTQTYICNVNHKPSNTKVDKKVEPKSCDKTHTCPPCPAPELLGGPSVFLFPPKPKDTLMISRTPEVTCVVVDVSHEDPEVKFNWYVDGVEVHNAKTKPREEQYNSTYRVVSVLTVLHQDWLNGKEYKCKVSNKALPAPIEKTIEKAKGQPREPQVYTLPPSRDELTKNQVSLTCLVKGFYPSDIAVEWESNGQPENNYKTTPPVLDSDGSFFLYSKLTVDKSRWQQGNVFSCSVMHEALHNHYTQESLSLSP
light: B1 light
notes: Anti-glypican-3 IgG1; mutation in both H chains; also called S337E homodimerized antibody

This test addresses T1, human FcγRIIb extracellular domain with …. The test is described as follows: SPR (Biacore T100), antibody captured on antigen peptide chip, FcγRIIb as analyte; relative binding. As for the experimental part:
Analysis of interaction between objective antibody and the FcγR was carried out using Biacore T100 (GE Healthcare). HBS-EP+ (GE Healthcare) was used as the running buffer, and the measurement temperature was set to 25° C. Chips produced by immobilizing the antigen peptide by the amine coupling method to a Series S Sencor Chip CM5 (GE Healthcare), or alternatively, chips produced by allowing preliminarily biotinylated antigen peptides to interact with and immobilize onto a Series S Sensor Chip SA (certified) (GE Healthcare) were used. Antibodies of interest were captured onto an antigen peptide-immobilized chip, and allowed to interact to each FcγR diluted with running buffer. To regenerate and repeatedly use the chip, the antibodies captured on the chip were washed off by reacting 10 mM glycine-HCl, pH 1.5.
Background: SPR reads the build-up and loss of mass on a sensor chip optically.
Regarding B1, the He/Con_2b is 115 % of control GpH7-A5/GpH7-B3/GpL16-k0 (=100). In the case of B2, the Ho/Con_2b was 224 % of control GpH7-B3/GpL16-k0 (=100). For the molecule B3, the He/Con_2b was 206 % of control GpH7-A5/GpH7-B3/GpL16-k0 (=100). Take B4: the He/Con_2b was 192 % of control GpH7-A5/GpH7-B3/GpL16-k0 (=100). On the same count and under the same terms, the same measure for B5: 103 % of control GpH7-A5/GpH7-B3/GpL16-k0 (=100). On to B6, for which the Ho/Con_2b was 110 % of control GpH7-B3/GpL16-k0 (=100). For B7, the Ho/Con_2b was 125 % of control GpH7-B3/GpL16-k0 (=100).

On to B8, for which the He/Con_2b was 104 % of control GpH7-A5/GpH7-B3/GpL16-k0 (=100). Still for that read-out and setting: the value for B9 was 310 % of control GpH7-A5/GpH7-B3/GpL16-k0 (=100). The same measure, in the same setting: the same measure for B10: 192 % of control GpH7-A5/GpH7-B3/GpL16-k0 (=100); for B11: 114 % of control GpH7-A5/GpH7-B3/GpL16-k0 (=100).

B12: the He/Con_2b is 105 % of control GpH7-A5/GpH7-B3/GpL16-k0 (=100). For B13, the Ho/Con_2b is 327 % of control GpH7-B3/GpL16-k0 (=100). As for B14, the Ho/Con_2b was 116 % of control GpH7-B3/GpL16-k0 (=100). Consider B15, for which the He/Con_2b is 109 % of control GpH7-A5/GpH7-B3/GpL16-k0 (=100). On the same count and under the same terms, the same measure for B16: 103 % of control GpH7-A5/GpH7-B3/GpL16-k0 (=100).

On to B17, for which the He/Con_2b is 193 % of control GpH7-A5/GpH7-B3/GpL16-k0 (=100).

Turning to B18, the He/Con_2b was 105 % of control GpH7-A5/GpH7-B3/GpL16-k0 (=100). As for B19, the Ho/Con_2b was 115 % of control GpH7-B3/GpL16-k0 (=100). As for B20, the He/Con_2b was 193 % of control GpH7-A5/GpH7-B3/GpL16-k0 (=100). As for B21, the Ho/Con_2b is 396 % of control GpH7-B3/GpL16-k0 (=100). As for B22, the He/Con_2b is 109 % of control GpH7-A5/GpH7-B3/GpL16-k0 (=100). In the case of B23, the Ho/Con_2b was 106 % of control GpH7-B3/GpL16-k0 (=100). Still for that read-out and setting: the same measure for B24: 124 % of control GpH7-B3/GpL16-k0 (=100). Consider B25, for which the He/Con_2b is 141 % of control GpH7-A5/GpH7-B3/GpL16-k0 (=100). B26: the Ho/Con_2b was 109 % of control GpH7-B3/GpL16-k0 (=100).
